Results published in patent US20250223376A1 (VOYAGER THERAPEUTICS, published 2025).
Where “and” joins values, the source holds several entries; their conditions need not be identical. Identical values can stand only once.

Columns and labels:
HER2 ECD [1] = molecular target: T1, HER2 ECD (human, UniProt P04626 23-652); test: SPR Biacore 8K, captured Ab, HER2 ECD analyte; replicate 1
T1 construct: extracellular domain; also called HER2/neu; ErbB2

HER2 ECD [2] = molecular target: T1, HER2 ECD; test: SPR Biacore 8K, captured Ab, HER2 ECD analyte; replicate 2
HER2 ECD [3] = molecular target: T1, HER2 ECD; test: SPR Biacore 8K, captured Ab, HER2 ECD analyte; printed mean

B1: HER-78 anti-HER2 bispecific antibody molecule (bispecific antibody)
chain 1: QVQLVQSGAEVKKPGASVKVSCKASGYSFTGYFINWVREAPGQGLEWMGHISSSYATSTYNQKFQGRVTFTVDTSSSTAYMELSSLRSEDTAVYYCVRSGNYEEYAMDYWGQGTLVTVSS
chain 2: not shown
Question: How did the Kd (HER2 ECD [1]) turn out when B1 was run?
Answer: 0.54 nM and 0.544 nM

Question: What about the koff (HER2 ECD [1]) of the same binder?
Answer: 7.53e-05 s⁻¹

Question: What about the kon (HER2 ECD [1]) of the same binder?
Answer: 138000 M⁻¹ s⁻¹

Question: What about the Kd (HER2 ECD [2]) of the same binder?
Answer: 0.57 nM

Question: What about the koff (HER2 ECD [2]) of the same binder?
Answer: 9.89e-05 s⁻¹

Question: What about the kon (HER2 ECD [2]) of the same binder?
Answer: 174000 M⁻¹ s⁻¹

Question: And the Kd (HER2 ECD [3])?
Answer: 0.44 nM and 0.436 nM

Question: And the koff (HER2 ECD [3])?
Answer: 7.28e-05 s⁻¹

Question: And the kon (HER2 ECD [3])?
Answer: 164000 M⁻¹ s⁻¹
